Experimental findings from IntAct's records for PubMed 25789606 are described below.

The chains are these.
B1: Ameloblastin (Homo sapiens), Q9NP70 (parent)
chain: MSASKIPLFKMKDLILILCLLEMSFAVPFFPQQSGTPGMASLSLETMRQLGSLQRLNTLSQYSRYGFGKSFNSLWMHGLLPPHSSLPWMRPREHETQQYEYSLPVHPPPLPSQPSLKPQQPGLKPFLQSAAATTNQATALKEALQPPIHLGHLPLQEGELPLVQQQVAPSDKPPKPELPGVDFADPQGPSLPGMDFPDPQGPSLPGLDFADPQGSTIFQIARLISHGPMPQNKQSPLYPGMLYVPFGANQLNAPARLGIMSSEEVAGGREDPMAYGAMFPGFGGMRPGFEGMPHNPAMGGDFTLEFDSPVAATKGPENEEGGAQGSPMPEANPDNLENPAFLTELEPAPHAGLLALPKDDIPGLPRSPSGKMKGLPSVTPAAADPLMTPELADVYRTYDADMTTSVDFQEEATMDTTMAPNSLQTSMPGNKAQEPEMMHDAWHFQEP

The variants in the assay derive from B1. To be noted: with fa20c_human FAM20C.
On to S34A, for which the “effect of a mutation on the interaction” value is listed as “with no effect”.

On to T46A, for which the “effect of a mutation on the interaction” value is recorded as “with no effect”.

Consider S41A, for which the “effect of a mutation on the interaction” value is recorded as “with no effect”.

T36A: the “effect of a mutation on the interaction” value is reported as “with no effect”.
